By Kd is commonly meant the equilibrium constant for the complex coming apart. Higher therefore signals lower affinity. For orientation: stoichiometry N means the number of molecules, sites or subunits per partner or assembly.

B2: mouse TIRR (6-211) (domain or fragment, M. musculus)
chain: GHMVPELKQISREEAMRLGPGWSHSCHAMLYAANPGQLFGRIPMRFSVLMQMRFDGLLGFPGGFVDRRFWSLEDGLNRVLGLGLGGLRLTEADYLSSHLTEGPHRVVAHLYARQLTLEQLHAVEISAVHSRDHGLEVLGLVRVPLYTQKDRVGGFPNFLSNAFVSTAKYQLLFALKVLNMMPSEKLAEALASATEKQKKALEKLLPPSS
notes: overhang left after TEV cleavage, printed as Gly-His-Met; TIRR (Nudt16L1), M. musculus, residues 6-211; Homodimer by ultracentrifugation and in the crystal; also called Nudt16L1; source: E. coli BL21-Codon PLUS(DE3)-RIPL, purified (Ni-NTA, TEV, heparin, Superdex200); not shown: His6, N-terminal, cleaved

Data set [1] addresses B2. Description: ITC; 200-400 μM 53BP1 Tudor domain (wt or mutant) injected into 200 μl of 22-44 μM TIRR or Nudt16 (wt or mutant); 25 °C; 20 mM Tris-HCl pH 7.5, 150 mM NaCl; single-site binding model. The following applies: both partners purified.
Data set [2] concerns the molecule itself. Description: AUC; TIRR alone; 20 mM Tris-HCl pH 7.5, 150 mM NaCl; dimer.
Data set [3] deals with B2. Description: AUC; sedimentation velocity (20 °C) and sedimentation equilibrium (16 °C); TIRR and 53BP1 Tudor premixed at 2:1 ratio; 20 mM Tris-HCl pH 7.5, 150 mM NaCl. The following applies: both partners purified.
The target in a further data set is T1, human TIRR (6-211) (H. sapiens, UniProt Q9BRJ7 6-211).
T1 construct: overhang left after TEV cleavage, printed as Gly-His-Met; TIRR (Nudt16L1), H. sapiens, residues 6-211; also called Nudt16L1; source: E. coli BL21-Codon PLUS(DE3)-RIPL, purified (Ni-NTA, TEV, heparin, Superdex200); not shown: His6, N-terminal, cleaved
T1 sequence (Q9BRJ7 other isoform, or with tags, fused parts or gaps): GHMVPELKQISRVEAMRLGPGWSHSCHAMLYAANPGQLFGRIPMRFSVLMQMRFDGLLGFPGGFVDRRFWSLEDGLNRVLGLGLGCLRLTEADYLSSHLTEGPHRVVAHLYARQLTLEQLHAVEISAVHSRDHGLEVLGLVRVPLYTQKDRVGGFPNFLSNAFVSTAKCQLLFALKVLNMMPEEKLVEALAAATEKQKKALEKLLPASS
Description: ITC; 200-400 μM 53BP1 Tudor domain (wt or mutant) injected into 200 μl of 22-44 μM TIRR or Nudt16 (wt or mutant); 25 °C; 20 mM Tris-HCl pH 7.5, 150 mM NaCl; single-site binding model. The following applies: both partners purified. (In general: Isothermal titration calorimetry measures the heat released or taken up as one component is titrated into another.)

The target in data set [4] is B2. Description: AUC; sedimentation velocity, 20 °C; TIRR and 53BP1 Tudor assembled in equal molar ratio; 20 mM Tris-HCl pH 7.5, 150 mM NaCl. The following applies: both partners purified.
In data set [5] the target is B2. Description: ITC; 200-400 μM 53BP1 Tudor domain (wt or mutant) injected into 200 μl of 22-44 μM TIRR or Nudt16 (wt or mutant); 25 °C; 20 mM Tris-HCl pH 7.5, 150 mM NaCl; single-site binding model. The following applies: both partners purified. This is another data set of the same source.
The target of data set [6] is B2. The data set is described as above. The following applies: both partners purified. The source holds these as a separate data set.

B1: 53BP1 Tudor-UDR domain (1484-1631) (domain or fragment, H. sapiens)
chain: GHMNSFVGLRVVAKWSSNGYFYSGKITRDVGAGKYKLLFDDGYECDVLGKDILLCDPIPLDTEVTALSEDEYFSAGVVKGHRKESGELYYSIEKEGQRKWYKRMAVILSLEQGNRLREQYGLGPYEAVTPLTKAADISLDNLVEGKRKRRS
notes: overhang left after TEV cleavage, printed as Gly-His-Met; 53BP1 Tudor-UDR domain, H. sapiens, residues 1484-1631; source: E. coli BL21-Codon PLUS(DE3)-RIPL, purified (Ni-NTA, TEV, Superdex200); not shown: His6, N-terminal, cleaved
Take B1: in the data set with mouse TIRR (6-211) [1], binding was put at a Kd of 0.9 µM.
In the case of B2, in data set [2], the “stoichiometry N” value was determined as 2.

B3: 53BP1 tandem Tudor domain (1484-1603) (domain or fragment, H. sapiens)
chain: GHMNSFVGLRVVAKWSSNGYFYSGKITRDVGAGKYKLLFDDGYECDVLGKDILLCDPIPLDTEVTALSEDEYFSAGVVKGHRKESGELYYSIEKEGQRKWYKRMAVILSLEQGNRLREQYGLG
notes: overhang left after TEV cleavage, printed as Gly-His-Met; 53BP1 tandem Tudor domain, H. sapiens, residues 1484-1603; also called 53BP1 Tudor; 53BP1-Tudor WT; source: E. coli BL21-Codon PLUS(DE3)-RIPL, purified (Ni-NTA, TEV, Superdex200); not shown: His6, N-terminal, cleaved
For B3, the “stoichiometry N” value was 0.5 53BP1 Tudor per TIRR (printed as TIRR/53BP1 Tudor 2:1) with mouse TIRR (6-211) [3], 1 with mouse TIRR (6-211) [1] and 1 53BP1 Tudor per TIRR (printed as 2:2) in the data set with mouse TIRR (6-211) [4]. Moreover, the Kd with human TIRR (6-211) and with mouse TIRR (6-211) [5] was 0.9 µM throughout.

B4: 53BP1 Tudor Y1500A (domain or fragment, H. sapiens)
chain: GHMNSFVGLRVVAKWSSNGAFYSGKITRDVGAGKYKLLFDDGYECDVLGKDILLCDPIPLDTEVTALSEDEYFSAGVVKGHRKESGELYYSIEKEGQRKWYKRMAVILSLEQGNRLREQYGLG
notes: overhang left after TEV cleavage, printed as Gly-His-Met; 53BP1 tandem Tudor domain, H. sapiens, residues 1484-1603; source: E. coli BL21-Codon PLUS(DE3)-RIPL, purified as the wt protein; not shown: His6, N-terminal, cleaved
In the data set with mouse TIRR (6-211) [6], B4 returned a Kd of 12.7 µM.

B5: 53BP1 Tudor F1553A (domain or fragment, H. sapiens)
chain: GHMNSFVGLRVVAKWSSNGYFYSGKITRDVGAGKYKLLFDDGYECDVLGKDILLCDPIPLDTEVTALSEDEYASAGVVKGHRKESGELYYSIEKEGQRKWYKRMAVILSLEQGNRLREQYGLG
notes: as for B4
Turning to B5, in the data set with mouse TIRR (6-211) [6], the Kd turned out to be 1.5 µM.

B6: 53BP1 Tudor D1521A (domain or fragment, H. sapiens)
chain: GHMNSFVGLRVVAKWSSNGYFYSGKITRDVGAGKYKLLFDAGYECDVLGKDILLCDPIPLDTEVTALSEDEYFSAGVVKGHRKESGELYYSIEKEGQRKWYKRMAVILSLEQGNRLREQYGLG
notes: as for B4
As to B6, binding in the data set with mouse TIRR (6-211) [6] was put at a Kd of 5.4 µM.

B7: 53BP1 Tudor L1547A (domain or fragment, H. sapiens)
chain: GHMNSFVGLRVVAKWSSNGYFYSGKITRDVGAGKYKLLFDDGYECDVLGKDILLCDPIPLDTEVTAASEDEYFSAGVVKGHRKESGELYYSIEKEGQRKWYKRMAVILSLEQGNRLREQYGLG
notes: as for B4
In the data set with mouse TIRR (6-211) [6], B7 had a Kd of 4.7 µM.

B8: 53BP1 Tudor L1547G (domain or fragment, H. sapiens)
chain: GHMNSFVGLRVVAKWSSNGYFYSGKITRDVGAGKYKLLFDDGYECDVLGKDILLCDPIPLDTEVTAGSEDEYFSAGVVKGHRKESGELYYSIEKEGQRKWYKRMAVILSLEQGNRLREQYGLG
notes: as for B4
The molecule B8 showed a Kd with mouse TIRR (6-211) [6] of 17.3 µM.

B9: 53BP1 Tudor Y1523A (domain or fragment, H. sapiens)
chain: GHMNSFVGLRVVAKWSSNGYFYSGKITRDVGAGKYKLLFDDGAECDVLGKDILLCDPIPLDTEVTALSEDEYFSAGVVKGHRKESGELYYSIEKEGQRKWYKRMAVILSLEQGNRLREQYGLG
notes: as for B4
Turning to B9, the Kd in the data set with mouse TIRR (6-211) [6] amounted to 28.5 µM.

B10: 53BP1 Tudor W1495A (domain or fragment, H. sapiens)
chain: GHMNSFVGLRVVAKASSNGYFYSGKITRDVGAGKYKLLFDDGYECDVLGKDILLCDPIPLDTEVTALSEDEYFSAGVVKGHRKESGELYYSIEKEGQRKWYKRMAVILSLEQGNRLREQYGLG
notes: as for B4
In the data set with mouse TIRR (6-211) [6], B10 came in with a Kd of 15.4 µM.

For the origin of these results see PMC5974088, “Structural basis for recognition of 53BP1 tandem Tudor domain by TIRR” (Nature Communications, 2018).
